Source: paper doi:10.1101/830265, “Relationships between puroindoline-prolamin interactions and wheat grain hardness” (bioRxiv, 2019)

Columns and labels:
puroindoline A [1] = target: T1, puroindoline A (Triticum aestivum, UniProt P33432 29-148); assay: SPR; same sensorgrams as the kinetic fit (immobilised (PQQPY)8, PINA 2 to 20 uM flowed, 25°C, Hepes buffer pH 7.4); steady-state fit, 1:1 Langmuir model; settings: both partners purified
T1 construct: puroindoline A (PINA) of Triticum aestivum, purified from grain of cv; about 13 kDa, five disulfide bonds; matured by cleavages at both N- and C-termini, with forms that differ at the C-terminus; The Pina allele of cv; also called PINA; source: purified from the hard wheat Triticum aestivum cultivar Recital
T1 sequence (looked up): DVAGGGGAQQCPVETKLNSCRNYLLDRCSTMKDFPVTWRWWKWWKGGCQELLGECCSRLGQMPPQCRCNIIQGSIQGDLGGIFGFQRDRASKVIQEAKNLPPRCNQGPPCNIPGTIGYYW

puroindoline A [2] = target: T1, puroindoline A; assay: SPR; Biacore X100, CM5 chip; gliadin or (PQQPY)8 covalently immobilised, PINA flowed at 10 uL/min, 25°C, Hepes buffer pH 7.4 (10 mM Hepes, 150 mM NaCl, 3.4 mM EDTA, 0.005% P20); global kinetic fit, 1:1 Langmuir model, KD=kd/ka; settings: both partners purified

B1: recombinant polypeptide (PQQPY)8 (peptide)
chain: PQQPYPQQPYPQQPYPQQPYPQQPYPQQPYPQQPYPQQPY
notes: eight repeats of the pentapeptide PQQPY, written out from the printed formula (PQQPY)8; mimics the consensus repeat domain of gliadins; measured mass 4924.5 Da (theoretical 4924.3 Da); Released from thioredoxin-DP-(PQQPY)8 by formic acid; the printed theoretical mass of 4924.3 Da fits the 40 residues of eight repeats with no further residue; also called (Pro-Gln-Gln-Pro-Tyr)8; repetitive domain …
Kd (puroindoline A [1]): 7.22 µM
Kd (puroindoline A [2]): 0.29 µM
